According to publication PMC8448839:

Biological target: TOR complex 1 (TORC1) in lysate of FLAG-Tor1 expressing yeast cells (TS269), P35169;P38873
Test: pull-down (GST) from yeast cell lysate, western blot quantified
Settings: chain shown with the change, read off a plot, scale: FLAG-Tor1 / GST-Pib2
[1] = without glutamine, parent: est. 1.0

B1: GST-Pib2(304-635), P53191 V626A (protein)
chain: LPQPASSTNLNFNSNKHKSNVRQISNPKKPLYIPAVLRKVSETNITNDDLLNATLSSYYKKASNLEHGFNPSKSQSASVQNANNLRIISSQSSVQSNTSSILESYKNKISSYLFPNSIPNSDRINLIPTISNRNSARVNPPTKDHWIPDSKRNSCRYCHKPFTLWERKHHCRHCGDIFCQDHLRHWLYLDSQANFIMINELNNGGINGGGTLCKICDDCLVEYENLSTTNHNANTNEDNINVEEGEDDDNDNRKKLRNYYKNRQMNALFRPKKGGSSQEHATVDRDTTTPIQVKSNDEEADNENTGGEQEEGNDVLGSVIGSAPANWNWSSF
25 mM Gln, parent: est. 6.2
  response: 2.7
[1]
  response: 0.6

B2: GST-Pib2(304-635), P53191 A628T (protein)
chain: LPQPASSTNLNFNSNKHKSNVRQISNPKKPLYIPAVLRKVSETNITNDDLLNATLSSYYKKASNLEHGFNPSKSQSASVQNANNLRIISSQSSVQSNTSSILESYKNKISSYLFPNSIPNSDRINLIPTISNRNSARVNPPTKDHWIPDSKRNSCRYCHKPFTLWERKHHCRHCGDIFCQDHLRHWLYLDSQANFIMINELNNGGINGGGTLCKICDDCLVEYENLSTTNHNANTNEDNINVEEGEDDDNDNRKKLRNYYKNRQMNALFRPKKGGSSQEHATVDRDTTTPIQVKSNDEEADNENTGGEQEEGNDVLGSVIGSVPTNWNWSSF
25 mM Gln, parent: est. 6.2
  response: 3.5
[1]
  response: 0.6
